Experiments:
Experiment in all cases: EMSA
Details in all cases: LightShift Chemiluminescent EMSA kit protocol; 20 fmol biotin-labeled DNA, 4 pmol protein (where stated); buffer, salt, pH and temperature not stated
OsWRKY71 (Oryza sativa) = OsWRKY71 (Oryza sativa) (UniProt Q6QHD1)
OsWRKY121 (Oryza sativa) = molecular target: T1, OsWRKY121 (Oryza sativa) (UniProt Q75KW2)
T1 sequence: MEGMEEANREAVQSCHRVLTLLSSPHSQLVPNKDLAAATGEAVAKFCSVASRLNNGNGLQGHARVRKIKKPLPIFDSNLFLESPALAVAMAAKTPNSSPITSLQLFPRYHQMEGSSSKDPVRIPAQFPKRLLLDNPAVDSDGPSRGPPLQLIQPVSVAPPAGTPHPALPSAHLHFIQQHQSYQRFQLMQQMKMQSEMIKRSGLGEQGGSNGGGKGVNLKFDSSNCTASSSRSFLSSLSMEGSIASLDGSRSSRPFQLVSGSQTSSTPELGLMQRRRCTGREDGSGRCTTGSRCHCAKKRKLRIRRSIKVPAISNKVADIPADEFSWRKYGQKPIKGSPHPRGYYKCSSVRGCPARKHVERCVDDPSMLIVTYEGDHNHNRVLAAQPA

[1] = tested on: GmRAV1 (Glycine max), ORF:a1ee9a9b
GmRAV1 (Glycine max), ORF:a1ee9a9b, sequence (chain, as listed by the source): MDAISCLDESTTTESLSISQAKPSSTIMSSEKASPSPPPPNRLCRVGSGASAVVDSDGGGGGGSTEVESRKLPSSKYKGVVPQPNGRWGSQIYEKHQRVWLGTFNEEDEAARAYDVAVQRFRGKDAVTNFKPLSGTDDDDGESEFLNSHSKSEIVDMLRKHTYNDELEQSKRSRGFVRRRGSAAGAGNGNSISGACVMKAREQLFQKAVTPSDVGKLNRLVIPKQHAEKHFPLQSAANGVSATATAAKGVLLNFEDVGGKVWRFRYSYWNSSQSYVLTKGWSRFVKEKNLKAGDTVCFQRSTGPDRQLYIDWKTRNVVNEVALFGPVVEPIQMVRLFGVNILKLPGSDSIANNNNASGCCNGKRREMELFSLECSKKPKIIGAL

OsWRKY71 (Oryza sativa), sequence (Q6QHD1 whole entry): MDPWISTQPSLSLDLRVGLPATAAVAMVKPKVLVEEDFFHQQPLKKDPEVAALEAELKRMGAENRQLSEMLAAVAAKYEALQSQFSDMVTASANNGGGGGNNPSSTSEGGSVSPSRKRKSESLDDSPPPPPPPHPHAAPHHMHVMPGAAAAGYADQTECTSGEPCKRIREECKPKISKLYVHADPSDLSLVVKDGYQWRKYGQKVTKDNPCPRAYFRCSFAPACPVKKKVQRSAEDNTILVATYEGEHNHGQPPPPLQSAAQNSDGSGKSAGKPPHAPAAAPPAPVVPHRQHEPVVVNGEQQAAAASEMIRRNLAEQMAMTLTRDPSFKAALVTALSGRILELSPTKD

Sequence	binding (OsWRKY71 (Oryza sativa))	binding (OsWRKY121 (Oryza sativa))	binding [1]
TCCTGAACGAAAGGACAATCCTTAGCCATCATAATGCTATGATCGACTTATTCTGAAGTCATCCGGCCTCGATCCTCTTTTGT (double strand) [OsNF-YC4 promoter P3]	no binding	no binding	–
GGCATTGACATGGATGGATGGAACACCCTCATAGTCACATGCCACAACAGAGTAACGCTAAACAAAATGTATTAACAAAAACTATAGGATCATGCTTTCTTAATTTAAAAACATAGGTGGTCAGTTTTTGTTAACATTAATTTTTAGGATTATTTGTTGAAGACAAATATGGAAGGTTTATAATAATTTATGTGCATTACTCAATGTAATCC (double strand) [GmNF-YC4-1 promoter P5]	–	–	binds
GGATTACATTGAGTAATGCACATAAATTATTATAAACCTTCCATATTTGTCTTCAACAAATAATCCTAAAAATTAATGTTAACAAAAACTGACCACCTATGTTTTTAAATTAAGAAAGCATG (double strand) [GmNF-YC4-1 promoter P2]	–	–	binds
GGCATTGACATGGATGGATGGAACACCCTCATAGTCACATGCCACAACAGAGTAACGCTAAACAAAATGTATTAACAAAAACTATAGGATCATGCTTTCTTAATTTAAAAACATAGG (double strand) [GmNF-YC4-1 promoter P1]	–	–	no binding
TGGCTCCCTAGAGCTTTTTGTAAGTTGATCATCGAAGTAGCTAGTTCTCTTCACTTATCAGTCATCACTGTTCTATGTTCTATCTGCATTTTCCTTGATTTTGTACTTTTCCTGAACGAAAGGACAATCCTT (double strand) [OsNF-YC4 promoter P2]	binds	binds	–
TAAAAGAAACAAGATTAAATTACGTATTTAATAATTTAAGATTAATGTTGTTTAATTTGATTTTTTAAATATTTATCTTTCTTTTGAATTTGATTCTTTAGTTCACTTAAG (double strand) [GmNF-YC4-1 promoter P4]	–	–	no binding
ACCAGAGTTCTTTTTCCCCCTCTTCTACATAAACGAAAACAGCTTGTTGACTGGCTCCCTAGAGCTTTTTGTAAGTTGATCATCGAAGTAGCTAGTTCTCTTCACTTATCAGTCATCACTGTTCTATGTTCTATCTGCATTTTCCTTGATTTTGTACTTTTCCTGAACGAAAGGACAATCCTTAGCCATCATAATGCTATGATCGACTTATTCTGAAGTCATCCGGCCTCGATCCTCTTTTGT (double strand) [OsNF-YC4 promoter P5]	binds	binds	–
CCCTAATATTGTGAACAAACTTTGTTGGTAATGTAAAAAAAATTAAAAGAAACAAGATTAAATTACGTATTTAATAATTTAAGATTAATGTTGTTTAATTTGATTTTTTAAATATTTATCTTTCTTTTGAATTTGATTCTTTAGTTCAC (double strand) [GmNF-YC4-1 promoter P6]	–	–	binds
AGCATTATGATGGCTAAGGATTGTCCTTTCGTTCAGGAAAAGTACAAAATCAAGGAAAATGCAGA (double strand) [OsNF-YC4 promoter P4]	no binding	–	–
AACAGCTTGTTGACTGGCTCCCTAGAGCTTTTTGTAAGTTGATCATCGAAGTAGCTAGTTCTCTTCACTTATCAGTCATCACTGTTCTATGTTCTATCTGCATTTTCCTTGATTTTGTACTTTTCCTGAACGAAAGGACAATCCTTAGCCATCATAATGCTATGATCGACTTATTCTGAAGTCATCCGGCCTCGATCCT (double strand) [OsNF-YC4 promoter 198-bp]	–	binds	–
GATTAATAATATCCCTAATATTGTGAACAAACTTTGTTGGTAATGTAAAAAAAATTAAAAGAAACAAGATTAAATTACGTATTTAATAATTTAAGATTAA (double strand) [GmNF-YC4-1 promoter P3]	–	–	binds
